Data taken from US20070123452A1, “Method of selecting novel immunosuppressant” (Astellas Pharma Inc., priority 2002, published 2007).
Where a chain is given by its changes, count along the chain named. In names and notes the source's numbering stands.

B1: HDAC4 dominant negative variant (H863L) with C-terminal Flag (expressed from pEAK-HDAC4 (H863L)) (protein)
chain: MSSQSHPDGLSGRDQPVELLNPARVNHMPSTVDVATALPLQVAPSAVPMDLRLDHQFSLPVAEPALREQQLQQELLALKQKQQIQRQILIAEFQRQHEQLSRQHEAQLHEHIKQQQEMLAMKHQQELLEHQRKLERHRQEQELEKQHREQKLQQLKNKEKGKESAVASTEVKMKLQEFVLNKKKALAHRNLNHCISSDPRYWYGKTQHSSLDQSSPPQSGVSTSYNHPVLGMYDAKDDFPLRKTASEPNLKLRSRLKQKVAERRSSPLLRRKDGPVVTALKKRPLDVTDSACSSAPGSGPSSPNNSSGSVSAENGIAPAVPSIPAETSLAHRLVAREGSAAPLPLYTSPSLPNITLGLPATGPSAGTAGQQDTERLTLPALQQRLSLFPGTHLTPYLSTSPLERDGGAAHSPLLQHMVLLEQPPAQAPLVTGLGALPLHAQSLVGADRVSPSIHKLRQHRPLGRTQSAPLPQNAQALQHLVIQQQHQQFLEKHKQQFQQQQLQMNKIIPKPSEPARQPESHPEETEEELREHQALLDEPYLDRLPGQKEAHAQAGVQVKQEPIESDEEEAEPPREVEPGQRQPSEQELLFRQQALLLEQQRIHQLRNYQASMEAAGIPVSFGGHRPLSRAQSSPASATFPVSVQEPPTKPRFTTGLVYDTLMLKHQCTCGSSSSHPEHAGRIQSIWSRLQETGLRGKCECIRGRKATLEELQTVHSEAHTLLYGTNPLNRQKLDSKKLLGSLASVFVRLPCGGVGVDSDTIWNEVHSAGAARLAVGCVVELVFKVATGELKNGFAVVRPPGHHAEESTPMGFCYFNSVAVAAKLLQQRLSVSKILIVDWDVHHGNGTQQAFYSDPSVLYMSLLRYDDGNFFPGSGAPDEVGTGPGVGFNVNMAFTGGLDPPMGDAEYLAAFRTVVMPIASEFAPDVVLVSSGFDAVEGHPTPLGGYNLSARCFGYLTKQLMGLAGGRIVLALEGGHDLTAICDASEACVSALLGNELDPLPEKVLQQRPNANAVRSMEKVMEIHSKYWRCLQRTTSTAGRSLIEAQTCENEEAETVTAMASLSVGVKPAEKRPDEEPMEEEPPLDYKDDDDK
B2: HDAC4 dominant negative variant (H802K, H803L) with C-terminal Flag (expressed from pEAK-HDAC4 (H802K, H803L)) (protein)
chain: B1 chain with H802K, H803L, L863H

Legend:
[1] = biological target: T1, HDAC3, endogenous protein of the transfected cells, O15379
T1 chain: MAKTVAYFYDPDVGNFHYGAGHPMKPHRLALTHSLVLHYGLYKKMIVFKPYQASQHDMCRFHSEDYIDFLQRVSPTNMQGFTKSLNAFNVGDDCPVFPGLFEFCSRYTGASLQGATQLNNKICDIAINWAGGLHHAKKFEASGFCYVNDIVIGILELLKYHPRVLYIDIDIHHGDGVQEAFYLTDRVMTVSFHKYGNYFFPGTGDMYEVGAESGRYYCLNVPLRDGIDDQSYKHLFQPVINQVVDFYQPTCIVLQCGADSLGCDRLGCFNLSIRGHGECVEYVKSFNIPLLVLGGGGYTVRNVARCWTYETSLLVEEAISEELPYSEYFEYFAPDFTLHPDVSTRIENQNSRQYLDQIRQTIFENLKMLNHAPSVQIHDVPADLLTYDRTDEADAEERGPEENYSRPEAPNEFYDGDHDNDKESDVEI

[2] = biological target: N-CoR (nuclear receptor corepressor), endogenous protein of the transfected cells, O75376
N-CoR (nuclear receptor corepressor), endogenous protein of the transfected cells, O75376, sequence (O75376 whole entry): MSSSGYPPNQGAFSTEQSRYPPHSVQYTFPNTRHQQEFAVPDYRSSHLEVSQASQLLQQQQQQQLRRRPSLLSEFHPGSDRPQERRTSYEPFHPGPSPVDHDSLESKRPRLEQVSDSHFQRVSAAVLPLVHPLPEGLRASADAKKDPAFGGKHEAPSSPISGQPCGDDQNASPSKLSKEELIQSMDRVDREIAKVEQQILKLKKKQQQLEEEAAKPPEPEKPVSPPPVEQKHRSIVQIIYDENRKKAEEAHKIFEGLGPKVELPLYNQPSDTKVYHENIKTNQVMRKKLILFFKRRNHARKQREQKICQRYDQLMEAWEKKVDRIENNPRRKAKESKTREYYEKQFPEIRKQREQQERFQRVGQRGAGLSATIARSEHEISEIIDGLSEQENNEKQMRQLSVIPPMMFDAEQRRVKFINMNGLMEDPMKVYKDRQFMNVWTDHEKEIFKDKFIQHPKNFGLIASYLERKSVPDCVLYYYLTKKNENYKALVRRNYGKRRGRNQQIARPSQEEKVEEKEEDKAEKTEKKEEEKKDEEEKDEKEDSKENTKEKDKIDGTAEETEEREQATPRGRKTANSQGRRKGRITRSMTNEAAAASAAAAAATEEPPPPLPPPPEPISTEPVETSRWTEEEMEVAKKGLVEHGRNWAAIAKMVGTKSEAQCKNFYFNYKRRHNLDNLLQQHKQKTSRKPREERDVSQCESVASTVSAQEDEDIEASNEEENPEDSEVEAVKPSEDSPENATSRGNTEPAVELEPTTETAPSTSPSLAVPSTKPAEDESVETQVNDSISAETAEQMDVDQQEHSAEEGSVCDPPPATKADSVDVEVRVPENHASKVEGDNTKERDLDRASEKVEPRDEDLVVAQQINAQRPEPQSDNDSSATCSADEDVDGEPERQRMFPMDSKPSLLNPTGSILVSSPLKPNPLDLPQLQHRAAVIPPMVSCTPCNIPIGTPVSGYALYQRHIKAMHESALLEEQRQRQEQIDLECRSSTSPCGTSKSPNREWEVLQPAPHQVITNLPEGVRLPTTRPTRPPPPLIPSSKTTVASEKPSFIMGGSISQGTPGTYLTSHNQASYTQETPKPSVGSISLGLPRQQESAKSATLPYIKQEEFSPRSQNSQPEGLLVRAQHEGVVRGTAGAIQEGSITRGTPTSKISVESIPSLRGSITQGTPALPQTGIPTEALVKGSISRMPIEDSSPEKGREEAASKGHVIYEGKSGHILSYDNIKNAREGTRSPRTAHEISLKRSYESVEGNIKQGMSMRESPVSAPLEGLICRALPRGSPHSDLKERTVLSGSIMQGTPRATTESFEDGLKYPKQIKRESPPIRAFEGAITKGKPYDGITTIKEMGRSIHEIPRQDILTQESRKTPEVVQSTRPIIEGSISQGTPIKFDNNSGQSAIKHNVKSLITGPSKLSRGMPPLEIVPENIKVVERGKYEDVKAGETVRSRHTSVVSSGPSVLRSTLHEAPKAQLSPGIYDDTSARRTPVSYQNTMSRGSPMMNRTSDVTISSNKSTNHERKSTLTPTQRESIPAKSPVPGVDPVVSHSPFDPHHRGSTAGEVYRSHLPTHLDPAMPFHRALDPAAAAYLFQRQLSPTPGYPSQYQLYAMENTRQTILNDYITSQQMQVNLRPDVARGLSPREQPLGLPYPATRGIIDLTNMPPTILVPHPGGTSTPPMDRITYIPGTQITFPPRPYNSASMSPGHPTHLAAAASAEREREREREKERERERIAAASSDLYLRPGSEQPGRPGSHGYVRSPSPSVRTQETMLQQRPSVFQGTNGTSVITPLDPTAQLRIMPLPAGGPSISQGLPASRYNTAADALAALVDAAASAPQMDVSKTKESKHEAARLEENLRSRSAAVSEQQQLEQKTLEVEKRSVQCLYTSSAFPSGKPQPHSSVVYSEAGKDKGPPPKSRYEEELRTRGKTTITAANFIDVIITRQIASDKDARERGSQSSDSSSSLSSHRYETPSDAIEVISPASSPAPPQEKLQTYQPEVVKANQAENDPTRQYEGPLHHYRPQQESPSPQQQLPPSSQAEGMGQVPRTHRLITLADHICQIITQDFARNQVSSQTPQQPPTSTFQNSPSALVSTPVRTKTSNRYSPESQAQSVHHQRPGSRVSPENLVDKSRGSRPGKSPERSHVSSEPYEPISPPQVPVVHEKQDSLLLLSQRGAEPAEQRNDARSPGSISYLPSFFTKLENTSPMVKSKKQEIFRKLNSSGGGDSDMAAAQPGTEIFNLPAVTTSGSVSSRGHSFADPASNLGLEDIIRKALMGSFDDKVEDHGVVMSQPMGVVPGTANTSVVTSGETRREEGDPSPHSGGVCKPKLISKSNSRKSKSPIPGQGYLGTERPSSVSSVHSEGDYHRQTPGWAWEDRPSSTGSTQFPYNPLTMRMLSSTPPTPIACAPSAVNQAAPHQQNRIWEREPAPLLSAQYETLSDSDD

| Protein | HDAC activity with [3H]-labeled acetylated histone as a substrate [1] | HDAC activity with [3H]-labeled acetylated histone as a substrate [2] |
| --- | --- | --- |
| B1 | had decreased HDAC activity compared to wild-type HDAC4 | had decreased HDAC activity compared to wild-type HDAC4 |
| B2 | had decreased HDAC activity compared to wild-type HDAC4 | had decreased HDAC activity compared to wild-type HDAC4 |
